The values that follow come from article PMC2672303, “Dosage Effects of Cohesin Regulatory Factor PDS5 on Mammalian Development: Implications for Cohesinopathies”.

For the data set, the target named is T1, C-PDS5B-His wild type (C-terminal PDS5B, two AT-hooks) (Homo sapiens, UniProt Q9NTI5 1134-1446).
T1 sequence: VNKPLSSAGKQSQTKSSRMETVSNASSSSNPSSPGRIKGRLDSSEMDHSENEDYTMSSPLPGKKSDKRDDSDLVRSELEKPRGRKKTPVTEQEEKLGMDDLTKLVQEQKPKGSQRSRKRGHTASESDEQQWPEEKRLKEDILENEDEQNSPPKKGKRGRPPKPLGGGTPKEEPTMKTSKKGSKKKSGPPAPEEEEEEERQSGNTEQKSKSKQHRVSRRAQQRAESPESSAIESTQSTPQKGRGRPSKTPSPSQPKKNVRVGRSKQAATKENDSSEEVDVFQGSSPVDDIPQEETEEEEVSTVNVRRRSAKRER
Description: EMSA; 5-40 ng protein; EMSA: 20 ng protein (5-40 ng in Fig. 7E) with 2.25 pmol 32P probe, 25 C, 5 min, 6% polyacrylamide gel; protein dialyzed in 50 mM Tris pH 7.5, 0.5 mM EDTA, 100 mM NaCl, 10% glycerol, 1 mM DTT; binding buffer as in cited work. Particulars: protein: recombinant; tags: N-terminal HA; C-terminal 6xHis; label: 32P; blunt. In general terms: Mobility shift assays separate free from complexed probe on a gel.

B1: T5-8-T5 probe (dsDNA)
DNA 1: GGACTCCAGGTCCAGGACCGCTTTTTGCGCGCGCTTTTTGCGGGAGGTCCAGCTGTCCACCTCC
DNA 2: GGAGGTGGACAGCTGGACCTCCCGCAAAAAGCGCGCGCAAAAAGCGGTCCTGGACCTGGAGTCC
On to B1, for which the binding result is given as “binds”.
